From patent JP2015180231A

Target: RSV融合(F)タンパク質 (RSV fusion (F) protein), on RSV-infected HEp2 cells (respiratory syncytial virus (RSV)) (UniProt P03420)
Experiment: cell-based or functional assay

UniProt P03420, sequence (P03420 26-574): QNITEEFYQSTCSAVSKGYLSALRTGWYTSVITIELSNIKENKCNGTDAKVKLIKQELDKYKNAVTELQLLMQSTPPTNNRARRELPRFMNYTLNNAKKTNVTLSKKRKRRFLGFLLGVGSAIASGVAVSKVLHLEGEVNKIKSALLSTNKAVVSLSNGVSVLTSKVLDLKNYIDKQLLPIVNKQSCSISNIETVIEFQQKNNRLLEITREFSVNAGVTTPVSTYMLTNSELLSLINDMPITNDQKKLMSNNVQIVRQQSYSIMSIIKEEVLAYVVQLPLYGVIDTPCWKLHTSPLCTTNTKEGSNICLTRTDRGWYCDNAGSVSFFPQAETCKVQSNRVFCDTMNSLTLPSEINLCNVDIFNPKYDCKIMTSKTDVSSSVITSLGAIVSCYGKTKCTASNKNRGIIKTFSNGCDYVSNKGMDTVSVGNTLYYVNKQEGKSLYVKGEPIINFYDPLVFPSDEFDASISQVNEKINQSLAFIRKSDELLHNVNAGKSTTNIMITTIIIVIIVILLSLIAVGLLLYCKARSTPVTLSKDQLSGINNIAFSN

**Q.** With “抗RSV抗体D25 (anti-RSV monoclonal antibody D25)” as the substance, how does the RSV-A2ウイルスに対して最大活性の半分を阻害する濃度(IC50) (microneutralisation) read?
**A.** Its RSV-A2ウイルスに対して最大活性の半分を阻害する濃度(IC50) (microneutralisation) is 2.1 ng/mL.
